Data on 1 molecule can be found in PMC12645976, “ARGLU1 is a negative regulator of the adenoviral replicative cycle” (Journal of Virology, 2025).

In the test the target is T1, 6xHis-E1A289R (HAdV5 E1A289R, 6xHis-tagged fusion protein) (human adenovirus 5 (HAdV5), UniProt P03255 1-289).
T1 construct: Early protein 1A (E1A) of human adenovirus 5 (HAdV5), the 289R product (289 residues by its name); also called Early protein 1A
As to the kind of experiment: pull-down; GST-ARGLU1 or GST mixed with 6xHis-E1A289R, captured on glutathione beads; 1 µg of each protein; western blot with M73 and M2 monoclonal E1A antibodies; glutathione beads alone as negative control. Conditions: both partners purified.

T1 sequence (P03255 whole entry, the tested form may be a part): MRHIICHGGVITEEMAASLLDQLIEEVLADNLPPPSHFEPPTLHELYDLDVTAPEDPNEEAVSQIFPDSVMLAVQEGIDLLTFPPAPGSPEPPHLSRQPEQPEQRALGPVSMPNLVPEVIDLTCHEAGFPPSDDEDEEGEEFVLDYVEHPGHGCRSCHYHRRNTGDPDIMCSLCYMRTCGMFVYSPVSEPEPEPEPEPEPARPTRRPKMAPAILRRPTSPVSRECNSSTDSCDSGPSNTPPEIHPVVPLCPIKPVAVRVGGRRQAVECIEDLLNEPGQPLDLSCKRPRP

B1: GST-ARGLU1 (human ARGLU1, GST-tagged fusion protein) (natural protein, UniProt Q9NWB6 1-273, looked up)
chain: MGRSRSRSSSRSKHTKSSKHNKKRSRSRSRSRDKERVRKRSKSRESKRNRRRESRSRSRSTNTAVSRRERDRERASSPPDRIDIFGRTVSKRSSLDEKQKREEEEKKAEFERQRKIRQQEIEEKLIEEETARRVEELVAKRVEEELEKRKDEIEREVLRRVEEAKRIMEKQLLEELERQRQAELAAQKAREEEERAKREELERILEENNRKIAEAQAKLAEEQLRIVEEQRKIHEERMKLEQERQRQQKEEQKIILGKGKSRPKLSFSLKTQD
notes: Arginine and glutamate-rich protein 1 (ARGLU1), human; also called Arginine and glutamate-rich protein 1; source: E. coli BL21 (DE3)-CodonPlus RIPL, purified (glutathione Sepharose, eluted with reduced glutathione, dialyzed)
Turning to B1, the binding result is recorded as “binds”.
